From patent US20060246076A1 come the findings set out here.

For the experiment, the target named is murine inducible nitric oxide synthase (murine) (UniProt P29477).

In the case of “COX2-myc fragment 484-604 (from UniProt P35354)”, the PGE2 formation reduction is over 50%.
